Assay: protein stability index of a GFP-peptide fusion (GPS, HEK-293T) (PSI 1-6); higher = more stable
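Also: lentivirally expressed fusions sorted by FACS into six bins by GFP to DsRed ratio, PSI derived from sequencing read proportions per bin multiplied by bin number.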

For KRSWEEHVTHWMGQPFNSDDRNTA, the protein stability index (parent: IOH28890_2, c terminus: a fixed tail appended) was 2.65.

Protein HVTHWMGQPFNSDDRNTACHHGLV has a protein stability index (parent: IOH28890_3, c terminus: a fixed tail appended) of 2.14.

For VHVIGVEEPSVGASMLFDIREST, the protein stability index (parent: IOH28719_96, c terminus: native) was 2.07.

For RTHTGEKPYTCSVCGKSFSRTTCL, the protein stability index (parent: IOH28719_61, c terminus: a fixed tail appended) was 2.43.

Work on TVHEVDIFRCFCPVFLHSQMLWEL [FAM116A WT] yielded a protein stability index (parent: IOH27644_45, c terminus: a fixed tail appended) of 3.

Work on GHSHHSHHGHPSHQSHSLPNRRH yielded a protein stability index (parent: IOH27431_35, c terminus: native) of 2.57.

With PPEPLSQVSMWDQRWQDHQPLLPI the protein stability index (parent: IOH27581_25, c terminus: a fixed tail appended) was 3.15.

DSHILLCLMGLAETPGCATLLPAS gave a protein stability index (parent: IOH28737_24, c terminus: a fixed tail appended) of 2.86.

Work on FVKALDDLHKMNHVTPPNVSLGAT [JUNB WT] yielded a protein stability index (parent: IOH27814_24, c terminus: a fixed tail appended) of 1.94.

In the case of ADPVLDLPLPPPPPEPLSQVSMWD, the protein stability index (parent: IOH27581_23, c terminus: a fixed tail appended) is reported as 4.59.

Work on QPPEMIGPMRPEQFSDEVEPATPE yielded a protein stability index (parent: IOH27258_4, c terminus: a fixed tail appended) of 5.04.

With PTVDLNQVLNETRSQYEALVETNR the protein stability index (parent: IOH28032_44, c terminus: a fixed tail appended) was 3.1.

Work on SAIYKWITDNFCYFRHADPTWQNS [FOXJ1 WT] yielded a protein stability index (parent: IOH27374_25, c terminus: a fixed tail appended) of 2.69.

In the case of ITYPPGVKEISDKISKEEMVRRLK, the protein stability index (parent: IOH27247_3, c terminus: a fixed tail appended) is reported as 3.62.

TFGDHHKDRRFAYGRSDVVVLCFS [RHOBTB1 WT] gave a protein stability index (parent: IOH27118_15, c terminus: a fixed tail appended) of 1.99.

With LNAELEEKMMQEAEKLKAQGEYSR [CCDC89 WT] the protein stability index (parent: IOH27358_17, c terminus: a fixed tail appended) was 4.98.

In the case of RALEEVEMKLQKNFLTQRENTIAG, the protein stability index (parent: IOH27431_29, c terminus: a fixed tail appended) is reported as 3.73.

Work on KQTIGNSCKACGYRGMLDTHHKLC [EIF5 WT] yielded a protein stability index (parent: IOH27132_20, c terminus: a fixed tail appended) of 3.1.

For LQRASILDMRRDHEEQLQRLKLLK, the protein stability index (parent: IOH27821_117, c terminus: a fixed tail appended) was 3.67.

Protein YPPPPPALPSSAPSGPPPPPPSVL [WASL WT] has a protein stability index (parent: IOH28816_58, c terminus: a fixed tail appended) of 4.3.

Protein YHSPELTTPPGHGTLDNSKSMKPY [NEUROD6 WT] has a protein stability index (parent: IOH27687_36, c terminus: a fixed tail appended) of 2.22.

YQRPQDSEDMWGDEDFTFGAYQPT showed a protein stability index (parent: IOH27821_46, c terminus: a fixed tail appended) of 2.9.

FHCIETLVTTGANVNETDDWGRTA [ANKRD44 WT] gave a protein stability index (parent: IOH28621_76, c terminus: a fixed tail appended) of 1.99.

Work on ISEYEKSLQFDEKCLSIMLAEWEA [RPAIN WT] yielded a protein stability index (parent: IOH28888_19, c terminus: a fixed tail appended) of 1.85.

Protein KKIFKSHLKSSRNSTSVKKKSSRN has a protein stability index (parent: IOH27142_36, c terminus: a fixed tail appended) of 3.96.

In the case of RPRRYVQPPEMIGPMRPEQFSDEV, the protein stability index (parent: IOH27258_3, c terminus: a fixed tail appended) is reported as 3.67.

Protein FVSIAQSEQESLLQQAQAQFRMAQ has a protein stability index (parent: IOH27102_133, c terminus: a fixed tail appended) of 2.09.

KISGGPRISYPLLHEWALREGEE [MAGEA6 WT] gave a protein stability index (parent: IOH28024_53, c terminus: native) of 2.93.

QLQCSPAELQAELLHSQARLAELE gave a protein stability index (parent: IOH27821_96, c terminus: a fixed tail appended) of 3.22.

With FWNIKQMWDTKTLGLRQHHCRKCG the protein stability index (parent: IOH27506_50, c terminus: a fixed tail appended) was 2.1.

With LPLPPPPPEPLSQVSMWDQRWQDH the protein stability index (parent: IOH27581_24, c terminus: a fixed tail appended) was 3.74.

TSECPSDKDKSPESHKAKNESWIK showed a protein stability index (parent: IOH27431_3, c terminus: a fixed tail appended) of 3.1.

In the case of PMYFFLGNLSVLDVGCISVTVPSM [OR3A1 WT], the protein stability index (parent: IOH28412_11, c terminus: a fixed tail appended) is reported as 2.98.

Protein AIQGISEKEKAEIEAKEACDWLRA has a protein stability index (parent: IOH28890_74, c terminus: a fixed tail appended) of 4.41.

RIHTGERPYMCKECGKAFSQNSSL showed a protein stability index (parent: IOH28719_47, c terminus: a fixed tail appended) of 2.6.

In the case of FGDSPKAEKRQIGDQEGPRPARST, the protein stability index (parent: IOH27821_37, c terminus: a fixed tail appended) is reported as 4.98.

MLWVQRKRRRKETSECPSDKDKSP showed a protein stability index (parent: IOH27431_1, c terminus: a fixed tail appended) of 2.93.

TTKCVRQYEGHVNEYAYLPLHVHE showed a protein stability index (parent: IOH28737_51, c terminus: a fixed tail appended) of 2.65.

KLLSVIVWMLMLLLAVPNIILTNQ showed a protein stability index (parent: IOH27142_24, c terminus: a fixed tail appended) of 3.1.

Protein PGIDRPGMLCSFRIPGAWSCAWSL has a protein stability index (parent: IOH28737_29, c terminus: a fixed tail appended) of 2.84.

For SQVSMWDQRWQDHQPLLPITDVP, the protein stability index (parent: IOH27581_27, c terminus: native) was 2.45.

For HAPTIHFNYRYFEVEEADGNKQWW [CPOX WT], the protein stability index (parent: IOH27839_43, c terminus: a fixed tail appended) was 2.33.

KPYTCSVCGKSFSRTTCLFLHLRT showed a protein stability index (parent: IOH28719_62, c terminus: a fixed tail appended) of 2.03.

Work on IYKKYALQSAAGKDAAKQIAWIKD yielded a protein stability index (parent: IOH27247_70, c terminus: a fixed tail appended) of 2.16.

For FNYSVGFKDLNESLNALEDQDLDA, the protein stability index (parent: IOH27581_8, c terminus: a fixed tail appended) was 4.47.

Protein SLGRHKRTHTGEKPYTCSVCGKSF has a protein stability index (parent: IOH28719_60, c terminus: a fixed tail appended) of 2.55.

RDAIEALCRRLNTLNKCAVMKLEI showed a protein stability index (parent: IOH28890_83, c terminus: a fixed tail appended) of 2.68.

Protein TNPDLIIVCAQSSQSLWNRLSVLL has a protein stability index (parent: IOH27102_112, c terminus: a fixed tail appended) of 2.77.

Work on FQRAMHDYNQAEMKQRDNCKIRIQ [STX11 WT] yielded a protein stability index (parent: IOH27407_24, c terminus: a fixed tail appended) of 2.68.

LLIPKEDGVITASEDRTIRVWLKR showed a protein stability index (parent: IOH27506_6, c terminus: a fixed tail appended) of 2.04.

Work on QEKLQVLMAEGLLPAVKVFLDWLR yielded a protein stability index (parent: IOH27102_108, c terminus: a fixed tail appended) of 2.44.

Work on TLARMSRRTRGPVERAAAAAAAAA [C6orf223 WT] yielded a protein stability index (parent: IOH28619_19, c terminus: a fixed tail appended) of 2.35.

For YQSYFKTIEELQQKILCAKAENAR, the protein stability index (parent: IOH28032_25, c terminus: a fixed tail appended) was 1.83.
